Sequences and labels used below:
T1: CD44 of BHK cells (hamster (endogenous in BHK), UniProt Q60522 23-431)
T1 sequence: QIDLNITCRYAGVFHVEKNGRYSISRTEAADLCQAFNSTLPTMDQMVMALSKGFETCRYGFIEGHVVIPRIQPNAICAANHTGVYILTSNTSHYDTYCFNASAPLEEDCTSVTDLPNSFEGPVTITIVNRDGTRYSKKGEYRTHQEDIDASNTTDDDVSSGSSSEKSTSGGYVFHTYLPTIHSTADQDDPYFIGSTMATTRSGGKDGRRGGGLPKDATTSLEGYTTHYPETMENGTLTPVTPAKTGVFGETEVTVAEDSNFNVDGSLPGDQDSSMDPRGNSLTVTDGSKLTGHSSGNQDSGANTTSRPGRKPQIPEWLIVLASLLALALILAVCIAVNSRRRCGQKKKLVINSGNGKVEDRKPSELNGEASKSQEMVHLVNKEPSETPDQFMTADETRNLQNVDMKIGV

B1: recombinant mouse ezrin (natural protein)
chain: MPKPINVRVTTMDAELEFAIQPNTTGKQLFDQVVKTIGLREVWYFGLQYVDNKGFPTWLKLDKKVSAQEVRKENPVQFKFRAKFYPEDVAEELIQDITQKLFFLQVKDGILSDEIYCPPETAVLLGSYAVQAKFGDYNKEMHKSGYLSSERLIPQRVMDQHKLSRDQWEDRIQVWHAEHRGMLKDSAMLEYLKIAQDLEMYGINYFEIKNKKGTDLWLGVDALGLNIYEKDDKLTPKIGFPWSEIRNISFNDKKFVIKPIDKKAPDFVFYAPRLRINKRILQLCMGNHELYMRRRKPDTIEVQQMKAQAREEKHQKQLERQQLETEKKRRETVEREKEQMLREKEELMLRLQDYEQKTKRAEKELSEQIEKALQLEEERRRAQEEAERLEADRMAALRAKEELERQAQDQIKSQEQLAAELAEYTAKIALLEEARRRKEDEVEEWQHRAKEAQDDLVKTKEELHLVMTAPPPPPPPVYEPVNYHVQEGLQDEGAEPMGYSAELSSEGILDDRNEEKRITEAEKNERVQRQLLTLSNELSQARDENKRTHNDIIHNENMRQGRDKYKTLRQIRQGNTKQRIDEFEAM
B2: recombinant mouse radixin (natural protein)
chain: MPKPINVRVTTMDAELEFAIQPNTTGKQLFDQVVKTVGLREVWFFGLQYVDSKGYSTWLKLNKKVTQQDVKKENPLQFKFRAKFFPEDVSEELIQEITQRLFFLQVKEAILNDEIYCPPETAVLLASYAVQAKYGDYNKEIHKPGYLANDRLLPQRVLEQHKLTKEQWEERIQNWHEEHRGMLREDSMMEYLKIAQDLEMYGVNYFEIKNKKGTELWLGVDALGLNIYEHDDKLTPKIGFPWSEIRNISFNDKKFVIKPIDKKAPDFVFYAPRLRINKRILALCMGNHELYMRRRKPDTIEVQQMKAQAREEKHQKQLERAQLENEKKKREIAEKEKERIEREKEELMERLRQIEEQTVKAQKELEEQTRKALELEQERQRAKEEAERLDRERRAAEEAKSAIAKQAADQMKNQEQLAAELAEFTAKIALLEEAKKKKEEEATEWQHKAFAAQEDLEKTKEELKTVMSAPPPPPPPPVIPPTENEHDEQDENSAEASAELSSEGVMNHRSEEERVTETQKNERVKKQLQALSSELAQARDETKKTQNDVLHAENVKAGRDKYKTLRQIRQGNTKQRIDEFEAM
B3: recombinant mouse moesin (natural protein)
chain: MPKTISVRVTTMDAELEFAIQPNTTGKQLFDQVVKTIGLREVWFFGLQYQDTKAFSTWLKLNKKVTAQDVRKESPLLFKFRAKFYPEDVSEELIQDITQRLFFLQVKEGILNDDIYCPPETAVLLASYAVQSKYGDFNKEVHKSGYLAGDKLLPQRVLEQHKLNKDQWEERIQVWHEEHRGMLREDAVLEYLKIAQDLEMYGVNYFSIKNKKGSELWLGVDALGLNIYEQNDRLTPKIGFPWSEIRNISFNDKKFVIKPIDKKAPDFVFYAPRLRINKRILALCMGNHELYMRRRKPDTIEVQQMKAQAREEKHQKQMERALLENEKKKRELAEKEKEKIEREKEELMEKLKQIEEQTKKAQQELEEQTRRALELEQERKRAQSEAEKLAKERQEAEEAKEALLQASRDQKKTQEQLASEMAELTARISQLEMARKKKESEAVEWQQKAQMVQEDLEKTRAELKTAMSTPHVAEPAENEHDEQDENGAEASAELRADAMAKDRSEEERTTEAEKNERVQKHLKALTSELANARDESKKTANDMIHAENMRLGRDKYKTLRQIRQGNTKQRIDEFESM
B4: GST fusion protein with the cytoplasmic domain of mouse CD44 (domain or fragment)
chain: NSRRRCGQKKKLVINGGNGTVEDRKPSELNGEASKSQEMVHLVNKEPSETPDQCMTADETRNLQSVDMKIGV

For one test, the target named is T1, CD44 of BHK cells. Briefly: co-sedimentation.
Test [1] addresses B2. Briefly: pull-down.
The test “recombinant mouse moesin” concerns the target B3. The test is described as follows: pull-down.
For the test “recombinant mouse ezrin”, the target named is B1. Briefly: pull-down.

In the case of B1, the “amount recovered in the insoluble fraction (of about 0.8 ug added)” value with CD44 of BHK cells is roughly 0.05 µg.

Turning to B2, the “amount recovered in the insoluble fraction (of about 0.8 ug added)” value in the test with CD44 of BHK cells was roughly 0.05 µg.

On to B3, for which the “amount recovered in the insoluble fraction (of about 0.8 ug added)” value in the test with CD44 of BHK cells was roughly 0.05 µg.

Regarding B4, the binding result (in test [1]; with recombinant mouse ezrin) was “binds” throughout. Moreover, in the test with recombinant mouse moesin, the Kd worked out at 9.3 ± 1.6 nM.

One may read the Kd as the constant that tells how readily two partners part at equilibrium.

The values above are taken from paper PMC2121020 (The Journal of Cell Biology, 1996).
